We go through two molecules from paper PMC8141032 (Oncogene, 2021).

In the experiment the target is recombinant Flag-tagged SNF5 (UniProt Q12824 1-385). The experiment is described as follows: pull-down.
recombinant Flag-tagged SNF5, sequence (Q12824 whole entry): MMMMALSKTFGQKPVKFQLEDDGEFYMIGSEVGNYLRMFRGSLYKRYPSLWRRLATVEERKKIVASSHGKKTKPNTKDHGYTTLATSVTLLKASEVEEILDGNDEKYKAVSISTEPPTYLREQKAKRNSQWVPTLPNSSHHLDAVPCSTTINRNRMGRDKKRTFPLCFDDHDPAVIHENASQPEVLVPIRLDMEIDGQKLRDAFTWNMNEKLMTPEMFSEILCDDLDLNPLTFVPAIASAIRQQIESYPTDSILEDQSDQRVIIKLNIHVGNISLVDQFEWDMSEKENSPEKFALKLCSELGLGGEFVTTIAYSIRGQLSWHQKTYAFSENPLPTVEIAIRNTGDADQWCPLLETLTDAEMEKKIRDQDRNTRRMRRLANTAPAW

B1: recombinant Sumo-tagged SWIRM (amino acids 417–580 of BAF155) (domain or fragment)
chain: TAGGKEDEDPAKGDQSRSVDLGEDNVTEQTNHIIIPSYASWFDYNCIHVIERRALPEFFNGKNKSKTPEIYLAYRNFMIDTYRLNPQEYLTSTACRRNLTGDVCAVMRVHAFLEQWGLVNYQVDPESRPMAMGPPPTPHFNVLADTPSGLVPLHLRSPQVPAAQ
As for B1, the binding result was “binds”.

B2: recombinant SWIRM domain (amino acids 417–546 of BAF155) (domain or fragment)
chain: TAGGKEDEDPAKGDQSRSVDLGEDNVTEQTNHIIIPSYASWFDYNCIHVIERRALPEFFNGKNKSKTPEIYLAYRNFMIDTYRLNPQEYLTSTACRRNLTGDVCAVMRVHAFLEQWGLVNYQVDPESRPM
For B2, the binding result was “binds”.
